We go through twelve molecules from patent publication US20260049134A1 (UNIVERSITY OF FLORIDA RESEARCH FOUNDATION, published 2026).

For assay [1], the target named is T1, GARS, endogenous in H929 multiple myeloma cells (human, UniProt P41250 37-739, limits assumed).
T1 construct: Native protein pulled down from H929 lysates; also called Glycyl-tRNA synthetase; GlyRS
T1 sequence: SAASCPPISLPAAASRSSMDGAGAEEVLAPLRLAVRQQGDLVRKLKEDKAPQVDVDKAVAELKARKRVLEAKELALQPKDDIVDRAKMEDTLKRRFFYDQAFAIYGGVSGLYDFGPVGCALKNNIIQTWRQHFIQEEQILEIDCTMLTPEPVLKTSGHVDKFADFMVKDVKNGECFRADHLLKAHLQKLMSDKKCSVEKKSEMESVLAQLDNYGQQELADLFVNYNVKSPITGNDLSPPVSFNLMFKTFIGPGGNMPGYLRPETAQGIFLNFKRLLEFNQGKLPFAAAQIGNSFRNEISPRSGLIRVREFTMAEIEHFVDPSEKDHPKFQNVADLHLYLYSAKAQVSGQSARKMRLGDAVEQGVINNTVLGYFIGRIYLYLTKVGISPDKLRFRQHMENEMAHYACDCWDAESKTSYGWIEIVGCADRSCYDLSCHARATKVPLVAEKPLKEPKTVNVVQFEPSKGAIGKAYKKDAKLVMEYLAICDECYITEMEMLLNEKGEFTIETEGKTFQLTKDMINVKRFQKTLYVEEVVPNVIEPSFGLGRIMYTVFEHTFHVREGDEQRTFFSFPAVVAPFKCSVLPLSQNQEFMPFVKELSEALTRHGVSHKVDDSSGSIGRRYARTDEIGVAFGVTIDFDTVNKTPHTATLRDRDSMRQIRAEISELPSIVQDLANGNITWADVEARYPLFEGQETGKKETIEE
The assay can be described thus: flow cytometry, H929 + NT Green siRNA; None 416; surface target GARS putative.

In assay [2] the target is T1, GARS, endogenous in H929 multiple …. In words: flow cytometry, H929 + PTPRG siRNA; None 2.13; surface target GARS putative.
Assay [3] shares this target. In words: flow cytometry, H929 + GARS siRNA (siRNA against the putative target); None 0.2.
A further assay addresses T2, IL13RA1.
T2 construct: coated protein in the ELISA; also called IL13RA1-Fc-His (R&D Systems)
T2 chain: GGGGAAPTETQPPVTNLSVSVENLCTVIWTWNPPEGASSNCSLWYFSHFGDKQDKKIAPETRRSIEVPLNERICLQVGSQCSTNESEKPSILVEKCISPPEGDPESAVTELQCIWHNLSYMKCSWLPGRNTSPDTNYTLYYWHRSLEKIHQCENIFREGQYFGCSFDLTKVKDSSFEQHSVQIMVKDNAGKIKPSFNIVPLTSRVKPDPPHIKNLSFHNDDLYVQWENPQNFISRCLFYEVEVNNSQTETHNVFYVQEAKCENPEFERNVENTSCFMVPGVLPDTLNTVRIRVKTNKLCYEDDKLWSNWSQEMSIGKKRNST
In words: ELISA on coated IL13RA1-Fc-His. How it is done: Recombinant purified ECDs (50-150 ng) of each putative target protein were coated, incubated with 150 ng of the indicated primary antibody, and binding was detected using a peroxidase-conjugated anti-human Fab secondary antibody. Heatmap represents averages of technical triplicates. (8B) Target validation via siRNA knockdown. H929 cells were transfected with siRNA pools targeting the putative antibody targets ICAM1, CADM1, and PTPRG. Cells were then subjected to cognate IgG binding analysis via flow cytometry. (NT, non-targeting siRNA).
ELISA ELISA was conducted as described previously. Briefly, 50-150 ng of antigen was coated overnight in half-area 96-well plates at 4° C., blocked with 3% BSA at 37° C. for 1 h, and 150 ng of chimeric rabbit/human IgG1 was added, incubating for 2 h at 37° C. […] After incubating at 37° C. for 15 min-1 h (depending on intensity of controls), data were acquired using a SpectraMax M5 plate reader (Molecular Devices).

The target in assay [4] is T3, PTPRG, endogenous in H929 multiple myeloma cells (human, UniProt P23470 20-1445).
T3 construct: Native protein on H929 cells (flow cytometry, siRNA knockdown) and in H929 lysates (IP/MS); also called phosphatase receptor type γ
T3 sequence (P23470 20-1445 limits assumed): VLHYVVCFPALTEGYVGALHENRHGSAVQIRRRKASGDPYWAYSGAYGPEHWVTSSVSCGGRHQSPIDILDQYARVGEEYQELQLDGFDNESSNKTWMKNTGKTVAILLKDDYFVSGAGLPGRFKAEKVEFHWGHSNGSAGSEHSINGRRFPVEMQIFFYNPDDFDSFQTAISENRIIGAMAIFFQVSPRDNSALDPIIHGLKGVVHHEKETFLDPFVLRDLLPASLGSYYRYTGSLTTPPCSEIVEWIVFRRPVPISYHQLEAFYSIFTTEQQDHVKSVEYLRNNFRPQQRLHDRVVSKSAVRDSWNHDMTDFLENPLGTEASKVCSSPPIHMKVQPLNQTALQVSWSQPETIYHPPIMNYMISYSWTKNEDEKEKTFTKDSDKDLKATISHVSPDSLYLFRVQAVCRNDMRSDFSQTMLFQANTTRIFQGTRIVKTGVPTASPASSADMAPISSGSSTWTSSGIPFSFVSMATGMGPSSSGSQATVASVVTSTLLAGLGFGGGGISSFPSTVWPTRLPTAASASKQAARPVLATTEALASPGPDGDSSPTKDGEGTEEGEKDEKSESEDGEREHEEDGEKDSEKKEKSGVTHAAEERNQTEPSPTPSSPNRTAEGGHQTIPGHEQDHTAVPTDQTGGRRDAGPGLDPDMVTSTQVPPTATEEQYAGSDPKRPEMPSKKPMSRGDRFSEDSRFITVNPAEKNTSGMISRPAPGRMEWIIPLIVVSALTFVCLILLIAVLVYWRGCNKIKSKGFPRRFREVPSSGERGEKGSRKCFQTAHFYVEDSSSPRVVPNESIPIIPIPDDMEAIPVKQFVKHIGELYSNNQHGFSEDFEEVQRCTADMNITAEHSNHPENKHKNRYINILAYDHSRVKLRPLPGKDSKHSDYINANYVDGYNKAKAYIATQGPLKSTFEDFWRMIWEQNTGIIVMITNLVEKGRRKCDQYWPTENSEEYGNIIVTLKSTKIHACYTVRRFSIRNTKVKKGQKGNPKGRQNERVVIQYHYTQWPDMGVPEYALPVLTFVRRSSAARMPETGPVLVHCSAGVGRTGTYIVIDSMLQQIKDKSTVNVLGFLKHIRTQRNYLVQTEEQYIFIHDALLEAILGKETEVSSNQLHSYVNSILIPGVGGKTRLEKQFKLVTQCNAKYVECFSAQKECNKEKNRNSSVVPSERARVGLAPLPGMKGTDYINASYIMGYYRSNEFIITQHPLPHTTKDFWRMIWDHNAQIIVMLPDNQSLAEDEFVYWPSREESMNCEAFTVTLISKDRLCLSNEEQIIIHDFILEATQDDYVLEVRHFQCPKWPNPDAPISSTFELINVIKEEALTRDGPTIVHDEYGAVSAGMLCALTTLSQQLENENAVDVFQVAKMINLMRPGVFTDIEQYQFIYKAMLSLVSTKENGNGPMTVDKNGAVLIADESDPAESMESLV
In words: flow cytometry, IgG1 on H929 cells. The method, then: Staining protocol. Cells were harvested (5×10⁴ cells per sample), washed once with phosphate-buffered saline (PBS) at RT, and a second time with ice-cold FACS buffer (PBS, 0.5% BSA, 2 mM EDTA, 0.1% NaN₃). Cells were stained in 50 μL of primary antibody for 30 min on ice, washed twice with 100 μL FACS buffer, stained with 50 μL of diluted secondary antibody, washed two more times in FACS, and then resuspended in 50 μL FACS buffer. Samples were acquired on an Accuri C6 Plus or a BD FACSCanto II flow cytometer (both from BD Biosciences). Data were analyzed using FlowJo version 10 software. Primary antibodies: Fab (10 μg/mL), IgG1 (0.1 to 50 μg/mL), or 25 μL polyclonal Fabs from periplasmic extracts. Polyclonal Fabs were produced by diluting bacterial stocks by a factor of 100 in autoinduction media and incubating overnight to induce expression as previously described. […] Viability stains: DAPI (Cell Signaling Technology) or SYTOX AADvanced Dead Cell Stain (Thermo Fisher Scientific). Labeling: The panel of chimeric rabbit/human IgG1s was labeled using the Alexa Fluor 647 Labeling Kit (Thermo Fisher Scientific, #A20173) to facilitate single-step staining. Competition: Unlabeled IgG1s were added at saturating concentrations of 60 μg/mL to block the target receptors, incubating on ice for 30 min, followed by the addition of an equal volume of the Alexa Fluor 647 labeled antibody at 2 μg/mL, and the mixture was incubated on ice for another 30 min.

Assay [5] addresses T3, PTPRG, endogenous in H929 multiple …. The assay can be described thus: flow cytometry, H929 + vehicle; None 513.

Numbering of substitutions follows the chain as printed. Numbers in names are those of the source.

B1: HW-56 chimeric rabbit-human IgG1 LA/LA/PG (antibody, V domains shown)
VH: QSVKESEGGLFKPTDTLTLTCTASGFTVSTNAVTWVRQAPGNGLEYIGTIGRSGSAYFASWAKRRSTLTRDINLNTVTLKMTSLTAADTATYFCVRGSPGYRTAISIWGPGTLVTISS
VL: AVMTQTPSSTSAAVEGTVTINCQASQSISNRLSWFQQKPGQPPKLLIYQASTLASGVPSRFKGSGSGTEFTLTISGVQREDAATYYCLGSYSSSDASFGGGTKLEIKR
notes: Fc-silenced (L234A/L235A/P329G) IgG1, kappa; Alexa Fluor 647-labeled in single-step flow cytometry; Cluster C-45
On to B1, for which the “mAb binding (MFI)” value in assay [1] worked out at 499000. Further, the “Cells stained (%)” value in assay [2] came out at 99.8%; in assay [3], 99.9%.

B2: HW-42 chimeric rabbit-human IgG1 LA/LA/PG (antibody, V domains shown)
VH: QSVKESEGGLFKPADTLTLTCTVSGFSLSSNEISWVRQAPGEGLEYIGIIDTGGRAYYAVWARSRSTITRNTNLNTVTLKMTSLTAADTATYFCARGGVDTEWYAFSSWGPGTLVTVPS
VL: SFVLTQPASVQVNLGQTVSLTCTADTLSRRYASWYQQKPGQAPVLLIFRDTSRPSGVPDRFSGSSSGDTATLTISGAQAGDEADYYCATSDGSGSNYQYVFGGGTQLTVTG
notes: Fc-silenced (L234A/L235A/P329G) IgG1, lambda; Alexa Fluor 647-labeled in single-step flow cytometry; Cluster C-1
Regarding B2, the binding result with IL13RA1 was “no binding (tested: 150 ng IgG1 per well)”. The “antibody-bound positive cells (%)” value in assay [4] amounted to 99.8%. Moreover, the “mAb binding (MFI)” value in assay [5] was 8320.

B3: HW-17 chimeric rabbit-human IgG1 LA/LA/PG (antibody, V domains shown)
VH: QSLGESRGRLVTPDETLTLTCTVSGIDLSSNAMSWVRQAPGEGLEWIGTINTGGRAYYASWAKGRFTISRTSTTVDLKMTSLTTEDTATYFCARERYSDGRAYDIWGPGTLVTISS
VL: B2 VL with F48Y, R49T, T51S, S52N, V57I, D68N, S90D, N96I
notes: as for B2
B3: in the assay with IL13RA1, the binding result was “no binding (tested: 150 ng IgG1 per well)”. In addition, in assay [4], the “antibody-bound positive cells (%)” value was 100%. The “mAb binding (MFI)” value in assay [5] turned out to be 15700.

B4: HW-25 chimeric rabbit-human IgG1 LA/LA/PG (antibody, V domains shown)
VH: QSLEESGGRLVTPGTPLTLTCTVSGFSLSSYAMGWVRQAPGKGLEWIGIIDSRGSTYYATWAKGRFTISKTSTTVDLKITSPTTEDTATYFCAREDSYYYDSFNLWGPGTLVTVSS
VL: B2 VL with F48Y, D68N, N96S, Y99C
notes: as for B2
Regarding B4, the binding result in the assay with IL13RA1 is “no binding (tested: 150 ng IgG1 per well)”. The “antibody-bound positive cells (%)” value in assay [4] came to 99.6%. For the same molecule, the “mAb binding (MFI)” value in assay [5] was 7560.

B5: HW-97 chimeric rabbit-human IgG1 LA/LA/PG (antibody, V domains shown)
VH: QKQLVESGGRLVTPGTPLTLTCTVTGIDLSSHGMSWVRQAPGKGLEWIGVIYPSGSTWYASWARGRFTISKTSTTVDLKMTSLTTEDTATHFCARGDVGGADNNIWGPGTLVTVSS
VL: B2 VL with N13D, D25E, R30S, F48Y, D68N, N96S
notes: Fc-silenced (L234A/L235A/P329G) IgG1, lambda; Alexa Fluor 647-labeled in single-step flow cytometry; Prototype of cluster C-97
Turning to B5, the binding result with IL13RA1 is “no binding (tested: 150 ng IgG1 per well)”.

B6: HW-28 chimeric rabbit-human IgG1 LA/LA/PG (antibody, V domains shown)
VH: QKQLVESGGRLVTPGTPLTLTCTASGFSLSSNAMSWVRQAPGEGLQWIGTISSGGSTYYASWAKGRFTISKTSTTVTLKMTSLTTEDTATYFCARGADLHRLWGPGTLVTVSS
VL: B2 VL with A24G, D25K, T26P, R30S, Y31F, L46V, F48Y, D68N, N96S
notes: Fc-silenced (L234A/L235A/P329G) IgG1, lambda; Alexa Fluor 647-labeled in single-step flow cytometry; Cluster C-45
For B6, the “mAb binding (MFI)” value in assay [1] came to 50700. The “Cells stained (%)” value is 98.6% in assay [2] and 98.3% in assay [3].

B7: HW-101 chimeric rabbit-human IgG1 LA/LA/PG (antibody, V domains shown)
VH: QEQLVESGGRLVTPGTPLTLTCKASGFSLGKYDMSWVRQAPGKGLEWIGTIYAGSGSTWYASWAKGRFTISKTSTTVDLKMTSLTTEDTATYFCARDFLGVNSIWGPGTLVTISS
VL: B2 VL with R30S, G40D, F48H, S65N, D68N, Y97F, Q98H, Y99F
notes: Fc-silenced (L234A/L235A/P329G) IgG1, lambda; Alexa Fluor 647-labeled in single-step flow cytometry; Cluster C-97
With B7, the binding result with IL13RA1 is given as “no binding (tested: 150 ng IgG1 per well)”.

B8: HW-1 chimeric rabbit-human IgG1 LA/LA/PG (antibody, V domains shown)
VH: QSLEESGGGLFKPTDTLTLTCTASGFSLGSSYAISWVRQAPGKELEWIGTIDSGRAYYARWAKSRSTITRNTNENTVTLKMTSLTAADTATYFCARDLIPTYSQDIWGPGTLVTISS
VL: B2 VL with F48Y, D68N, S95N, N96S, G111S
notes: Fc-silenced (L234A/L235A/P329G) IgG1, lambda; Alexa Fluor 647-labeled in single-step flow cytometry; Prototype of cluster C-1
For the molecule B8, in the assay with IL13RA1, the binding result is reported as “no binding (tested: 150 ng IgG1 per well)”. Further, in assay [4], the “antibody-bound positive cells (%)” value was found to be 100%. In assay [5], the “mAb binding (MFI)” value was determined as 15000.

B9: HW-113 chimeric rabbit-human IgG1 LA/LA/PG (antibody, V domains shown)
VH: QKQLVESGGGLVQPGGSLTLTCTVSGFSLNKYYMGWFRQAPGKGLEWIGVISRSGDTYYSSWAKGRFTISKASTTVDLRITSPTTEDTATYFCARDASSPGFHGDRLDLWGQGTLVTVSS
VL: B2 VL with R30S, F48Y, D68N, S93I, Q98L, Y99W
notes: Fc-silenced (L234A/L235A/P329G) IgG1, lambda; Alexa Fluor 647-labeled in single-step flow cytometry
As for B9, in the assay with IL13RA1, the binding result is “no binding (tested: 150 ng IgG1 per well)”.

B10: HW-70 chimeric rabbit-human IgG1 LA/LA/PG (antibody, V domains shown)
VH: QSLEESGGRLVTPGTPLTLTCTVSGFSLSSNAMSWVRQAPGKGLEWIGTIDGYGYTYYASWAKGRFTVSKTSTTVDLKITSPTTEDTATYFCAREIYLGSNFWGPGTLVTISS
VL: B2 VL with F48Y, D68N, S90A, N96S, Y99F
notes: as for B2
Take B10: in the assay with IL13RA1, the binding result is recorded as “no binding (tested: 150 ng IgG1 per well)”. Also, in assay [4], the “antibody-bound positive cells (%)” value came to 99.8%. Also, in assay [5], the “mAb binding (MFI)” value stood at 12300.

B11: TH9-0022 (antibody, human IgG1, kappa, L234A L235A, V domains shown)
VH: QSLEESGGRLVTPGTPLTLTCTVSGFSLSSYAMNWVRQAPGKGLEWIGIINSYGSTYYASWAKGRFTISKTSTTVDLKITSPTTEDTATYFCARVTYDSYGYGYAPYGMDLWGPGTLVTVSS
VL: LVMTQTPSSTSNAVGGTVTIKCQASQSIGNVLAWYQQKPGQPPKLLIYAASTLASGVPSRVGGSRSGTEYTLTISGVQREDAATYYCLGSDSDSDIAFGGGTELEILR
notes: also called TH9-022; negative control
Regarding B11, in the assay with IL13RA1, the binding result is “no binding (tested: 150 ng IgG1 per well)”. Also, the “mAb binding (MFI)” value in assay [5] worked out at 595.

B12: TH9-0022 (antibody, human IgG1, kappa, L234A L235A, V domains shown)
VH: B11 VH
VL: B11 VL
notes: also called TH9-022; negative control IgG1
On to B12, for which the “antibody-bound positive cells (%)” value in assay [4] turned out to be 2.7%.
